Each block holds one binder with its values, some of them ahead of it.
Key:
human EpCAM = target: T1, human EpCAM (human, UniProt P16422 24-265, limits assumed); test: column 'Human binding affinity (nM)'; method not stated
T1 sequence (looked up): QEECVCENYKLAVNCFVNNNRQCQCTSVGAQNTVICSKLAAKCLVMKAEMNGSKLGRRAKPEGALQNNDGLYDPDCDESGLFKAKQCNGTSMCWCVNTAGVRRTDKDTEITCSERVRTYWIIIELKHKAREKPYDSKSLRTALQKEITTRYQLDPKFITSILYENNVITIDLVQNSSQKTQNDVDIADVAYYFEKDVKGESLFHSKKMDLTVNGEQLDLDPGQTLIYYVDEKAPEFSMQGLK

cyno EpCAM [1] = target: cyno EpCAM (cyno); test: ratio of cyno to human binding affinity
cyno EpCAM [2] = target: cyno EpCAM (cyno); test: column 'Cyno binding affinity (nM)'; method not stated

Kd (human EpCAM): 4.1 nM
Cyno/Human cross reactivity (cyno EpCAM [1]): 12.6 ratio cyno/human
Kd (cyno EpCAM [2]): 58.8 nM
B1: hVIB-23 (VHH)
VHH: QVQLVESGGGLVQPGGSLTLSCVISGSFSALWAMRWYRQAPGQQRELVASSRGGTTSYADSVKGRFTISRDNSKNTLYLQMNSLRPEDTAVYYCNAIDGHLAYWGQGTLVTVSS
notes: Tied by label only (hVIB-23 = h23); also called EpCAM h23; sdABD-EpCAM h23

Kd (human EpCAM): 2.8 nM
Cyno/Human cross reactivity (cyno EpCAM [1]): 4.5 ratio cyno/human
Kd (cyno EpCAM [2]): 12.7 nM
B2: hVIB-13 (VHH)
VHH: QVQLVESGGGLVQPGGSLTLSCAASGTGSIFSINLMGWYRQAPGKQRELVARITSGDSTVYADSVKGRFTISRDNSKNTLYLQMNSLRPEDTAVYYCNLLLRSSPGATTPYWGQGTLVTVSS
notes: Tied by label only (hVIB-13 = h13); also called EpCAM h13; sdABD-EpCAM h13
